Legend:
Assay type in all cases: biochemical
Ap4A-RNA = assay: In vitro Ap4A-RNA decapping assay (cap-labelled RNA, thin-layer chromatography); conditions: recombinant protein 250 nM to 750 nM, 37° C., 30 min, TLC
Protocol: Briefly, using the Ap4A mixture (ATP and Ap4A) or Ap4A instead of ATP for in vitro transcription by MEGAshortscript™ T7 Transcription Kit (Life technologies; Cat. No. AM1354), we produced a 50 nt RNA. Template is the same as making 50 nt RNA for MEFs transfection. Note that if the mixture is used, this nucleotide mixture (ATP and Ap4A) still has all the components (lysine, inorganic pyrophosphatase etc) added during the Ap4A synthesis. In vitro transcription reaction was carried out at 37° C. for at least 4 h in a 20 μL reaction containing 6 pmol DNA template, 2 μL 10× reaction buffer, 2 μL of nucleotides (75 mM CTP, 75 mM UTP, 75 mM GTP), 2 μL of ATP/Ap4A mixture that we produced above, and 2 μL T7 enzyme mix (MEGAshortscript™ Kit, Life technologies, Cat. No. AM1354). After that, 1 μL TURBO DNase was added and incubated at 37° C. for 15 min to remove the DNA template. Unincorporated nucleotides were removed from the RNA preparation by Microspin G-25 Column (GE Healthcare, Cat. No. 27-5325-01), and the process was repeated twice. The radioactively labelled RNA was separated by 10% urea gel. […]
Decapping reaction products were resolved by PEI-cellulose TLC plates (Merk, Cat. No. 1057250001) and developed in 0.45 M (NH4)2SO4 in a glass chamber at room temperature. […] When required, signals were quantified by ImageQuantTL.

[1] = Ap4A hydrolysis assay (32P-labelled Ap4A, thin-layer chromatography); conditions: 750 nM recombinant human NUDT2 or Nuclease P1 0.5 and 1 unit, TLC
Protocol: To prepare radioactive Ap4A, we incubated 60 μCi of radioactive α-^32P-ATP (Perkin Elmer, Cat. no. BLU003X250UC; 75 fmol in 20 ul or 3.75 nM concentration) with 1 μM recombinant human Lys-tRNA synthetase (G540Y mutant) at 37° C. overnight in a 20 μl solution [100 mM Tris-HCl, pH 8.0, 10 mM MgCl2, 0.1 mM ZnCl2, 1 mM Lysine and 0.1 units inorganic pyrophosphatase (Sigma-Aldrich, Cat. no. I1643)].
We resolved the reaction products using thin-layer chromatography, using PEI-cellulose TLC plates (Merk, Cat. No. 1057250001) and developing it in 0.45 M (NH4)2SO4 using a glass chamber at room temperature. In addition to the ATP already present in the reaction, we see the presence of Ap4A (FIG. 9D). From this Ap4A mix (ATP and Ap4A), we obtained purified radioactive Ap4A (FIG. 9E) by HPLC (purification service kindly provided by Hartmann Analytic, Germany). For some experiments (FIG. 9F-G) we used this Ap4A mix (ATP and Ap4A). However, for most experiments (FIG. 2, FIG. 9E) the purified radioactive Ap4A was used.
For hydrolysis assays with Ap4A (AppppA, in bold is 32P), reactions were conducted as above, but the RNA was replaced with appropriate amount of HPLC-purified Ap4A. Hydrolysis assays were conducted with 750 nM of recombinant human NUDT2 or with Nuclease P1 (0.5 unit and 1 unit). NUDT2 hydrolyzes Ap4A (AppppA, in bold is 32P) into α-^32P-AMP and α-^32P-ATP (FIG. 2D).

m^7G-RNA = assay: In vitro m7G-RNA decapping assay (cap-labelled RNA, thin-layer chromatography); conditions: recombinant protein 250 nM to 750 nM, 37° C., 30 min, TLC

Row | Molecule | Ap4A-RNA decapping activity (Ap4A-RNA) | Hydrolysis of Ap4A [1] | m7G-RNA decapping activity (m^7G-RNA)
1 | NUDT12: recombinant untagged full-length human NUDT12 (protein, UniProt Q9BQG2 1-462, looked up, full-length) MSSVKRSLKQEIVTQFHCSAAEGDIAKLTGILSHSPSLLNETSENGWTALMYAARNGHPEIVQFLLEKGCDRSIVNKSRQTALDIAVFWGYKHIANLLATAKGGKKPWFLTNEVEECENYFSKTLLDRKSEKRNNSDWLLAKESHPATVFILFSDLNPLVTLGGNKESFQQPEVRLCQLNYTDIKDYLAQPEKITLIFLGVELEIKDKLLNYAGEVPREEEDGLVAWFALGIDPIAAEEFKQRHENCYFLHPPMPALLQLKEKEAGVVAQARSVLAWHSRYKFCPTCGNATKIEEGGYKRLCLKEDCPSLNGVHNTSYPRVDPVVIMQVIHPDGTKCLLGRQKRFPPGMFTCLAGFIEPGETIEDAVRREVEEESGVKVGHVQYVACQPWPMPSSLMIGCLALAVSTEIKVDKNEIEDARWFTREQVLDVLTKGKQQAFFVPPSRAIAHQLIKHWIRINPNL | only NUDT2 has Ap4A-RNA decapping activity |  | 
2 | nuclease P1: nuclease used to hydrolyze RNAs prior to mass spectrometry (protein, UniProt P24289 1-270, looked up) Nuclease P1: WGALGHATVAYVAQHYVSPEAASWAQGILGSSSSSYLASIASWADEYRLTSAGKWSASLHFIDAEDNPPTNCNVDYERDCGSSGCSISAIANYTQRVSDSSLSSENHAEALRFLVHFIGDMTQPLHDEAYAVGGNKINVTFDGYHDNLHSDWDTYMPQKLIGGHALSDAESWAKTLVQNIESGNYTAQAIGWIKGDNISEPITTATRWASDANALVCTVVMPHGAAALQTGDLYPTYYDSVIDTIELQIAKGGYRLANWINEIHGSEIAK |  | able to efficiently hydrolyse Ap4A | 
3 | 6×His-SUMO-tagged human NUDT2: recombinant full-length human NUDT2 with the larger 6×-His-SUMO tag (protein, UniProt P50583 1-147, looked up, full-length 6xHis-SUMO tag, recombinant full-length human NUDT2 with the larger 6×-His-SUMO tag) MALRACGLIIFRRCLIPKVDNNAIEFLLLQASDGIHHWTPPKGHVEPGEDDLETALRETQEEAGIEAGQLTIIEGFKRELNYVARNKPKTVIYWLAEVKDYDVEIRLSHEHQAYRWLGLEEACQLAQFKEMKAALQEGHQFLCSIEA |  |  | poorly active
4 | NUDT2: recombinant full-length human NUDT2, Nudix hydrolase for Ap4A (protein) ALRACGLIIFRRHLIPKMDNSTIEFLLLQASDGIHHWTPPKGHVDPGENDLETALRETREETGIEASQLTIIEGFRRELNYVARQKPKTVIYWLAEVKDYNVEIRLSQEHQAYRWLGLEEACQLAQFKEMKATLQEGHQFLCSTPA | only NUDT2 has Ap4A-RNA decapping activity | mostly asymmetrically hydrolyzed into ATP (Appp) and AMP (pA) | can decap m^7G-RNAs
